According to article PMC4132792, “Engagement of Nucleotide-binding Oligomerization Domain-containing Protein 1 (NOD1) by Receptor-interacting Protein 2 (RIP2) Is Insufficient for Signal Transduction*” (The Journal of Biological Chemistry, 2014):
Positions count from the first letter of the chain named. Names may count otherwise.

Target: the molecule itself
Assay: SEC; Superdex 75 HiLoad 16/60, 25 mM sodium phosphate, 100 mM NaCl, no reducing agent; monomer and dimer

B1: His6-tagged recombinant NOD1 CARD (residues 15-110), wild type (domain or fragment, human, UniProt Q9Y239-1 15-110, looked up)
chain: ESHPHIQLLKSNRELLVTHIRNTQCLVDNLLKNDYFSAEDAEIVCACPTQPDKVRKILDLVQSKGEEVSEFFLYLLQQLADAYVDLRPWLLEIGFS
notes: NOD1 CARD domain, human, residues 15-110; the dimer is stabilised by an interprotomer disulfide bond through Cys-39 (from the cited crystal structures); also called wild-type NOD1 CARD; wild-type NOD1
B1 was tested, and the “stoichiometry N” value was 2.

B2: His6-tagged recombinant NOD1 CARD (residues 15-110) D48K (domain or fragment, human, UniProt Q9Y239-1 15-110, looked up)
chain: B1 chain with D34K
notes: NOD1 CARD domain, human, residues 15-110, D48K
With B2 the “stoichiometry N” value was 2.

B3: His6-tagged recombinant NOD1 CARD (residues 15-110) N43S (domain or fragment, human, UniProt Q9Y239-1 15-110, looked up)
chain: B1 chain with N29S
notes: NOD1 CARD domain, human, residues 15-110, N43S (a rare polymorphism)
With B3 the “stoichiometry N” value was 2.

B4: His6-tagged recombinant NOD1 CARD (residues 15-110) E53K (domain or fragment, human, UniProt Q9Y239-1 15-110, looked up)
chain: B1 chain with E39K
notes: NOD1 CARD domain, human, residues 15-110, E53K
B4 was tested, and the “stoichiometry N” value was 2.

B5: His6-tagged recombinant NOD1 CARD (residues 15-110) A55V (domain or fragment, human, UniProt Q9Y239-1 15-110, looked up)
chain: B1 chain with A41V
notes: NOD1 CARD domain, human, residues 15-110, A55V (a polymorphism)
In the case of B5, the “stoichiometry N” value is reported as 2.

B6: His6-tagged recombinant NOD1 CARD (residues 15-110) E56K (domain or fragment, human, UniProt Q9Y239-1 15-110, looked up)
chain: B1 chain with E42K
notes: NOD1 CARD domain, human, residues 15-110, E56K
In the case of B6, the “stoichiometry N” value is reported as 2.
